Laboratory results as given in US10646540B2, “Peptide inhibitors of twist” (City of Hope, priority 2016, dated 2020).
Entries after “also recorded” stand apart in the source; their conditions may differ. Ends that are not written are not given here. Peptide text beside a SMILES is read from it. * marks the point of attachment. Cbz = O=C(OCc1ccccc1)*

How the values were obtained:
RELA = molecular target: T1, RELA (Homo sapiens, UniProt Q04206); test: Co-immunoprecipitation with GFP pulldown in transfected HEK-293 cells; assay type: binding; conditions: data not shown
T1 construct: The wild type RELA gene was also cloned into pcDNA4-MycHis; expressed in transfected cells; host or cells: HEK-293
From the text: (§1) In order to create a competitive inhibitor for TWIST1-RELA binding, the WR domain from TWIST1 was fused to GFP. To achieve this, PCR was used to amplify the final 63 nucleotides of the TWIST1 gene (including stop codon) and add 5′ XhoI and 3′ BamHI restriction sites. The PCR fragment and the pEGFP-C3 vector were subjected to XhoI-BamHI double digest (New England BioLabs, Ipswich, Mass.) and the two were ligated together. GFP lacking the WR domain was used as a control, and includes residues at the C-terminus encoded by the multiple cloning site of the vector. As a result, the molecular weights of the two GFP proteins are indistinguishable on a western blot. […]
(§2) HEK-293 cells were plated at 500,000 cells per well, in 2 mL normal medium, in a 6 well plate and allowed to adhere. […] Cell pellets were lysed in RIPA buffer, and protein concentration was determined by BCA Protein Assay (Thermo Fisher, Waltham, Mass.). […]
(§3) Protein was run on 4% stacking, 10% resolving polyacrylamide gels and transferred to PVDF membrane (GE Healthcare Bio-Sciences, Pittsburgh, Pa.) on a Trans-Blot SD Semi-Dry Transfer Cell (Bio-Rad, Hercules, Calif.). […] Protein was detected using FemtoGlow chemiluminescent substrate (Michigan Diagnostics, Royal Oak, Mich.) and the Pxi4 imager (Syngene, Frederick, Md.). Quantitation was performed using the accompanying GeneTools software.

TWIST1 [1] = molecular target: T2, TWIST1 (Homo sapiens, UniProt Q15672); test: as above; assay type: binding; conditions: increasing GFP-WR expression
T2 construct: The cloning of TWIST1 into the pcDNA4-MycHis vector has been described previously [14]; expressed in transfected cells; host or cells: HEK-293
T2 sequence (Q15672 1-202): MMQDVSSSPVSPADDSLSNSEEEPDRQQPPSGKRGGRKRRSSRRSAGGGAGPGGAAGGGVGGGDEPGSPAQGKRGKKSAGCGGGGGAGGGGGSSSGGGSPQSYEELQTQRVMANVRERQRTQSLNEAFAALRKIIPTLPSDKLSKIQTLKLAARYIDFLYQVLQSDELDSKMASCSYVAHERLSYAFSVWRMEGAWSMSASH
From the text: as §1, §2, §3

TWIST1 [2] = molecular target: T2, TWIST1; test: Cell fractionation and western blot of TWIST1 and GFP in HEK-293 cells; assay type: cell-based
Protocol: (§4) HEK-293 cells were grown in McCoy's 5A medium supplemented with 10% fetal bovine serum (FBS) and 1% penicillin/streptomycin (P/S). Ovcar4 cells were grown in RPMI medium with 10% FBS and 1% P/S. All cells were maintained at 37° C. and 90% humidity in a tissue culture incubator with 5% CO2 atmosphere. Cells were passaged every 2-4 days as they became confluent, using 0.25% trypsin. Where indicated, cells were transfected using 5 μL per well Lipofectamine 2000 (Life Technologies, Carlsbad, Calif.) in a total of 2 mL per well of OptiMEM low serum medium (Life Technologies). For proteasome inhibition studies, MG132 was added to cells in normal medium four hours after transfection and left on overnight. 5 μM was used for western studies, and 1 μM was used for luciferase assays.
as §1, with “blot. To achieve equal expression of GFP-WR compared to unmodified GFP, it was necessary to transfect cells with three-fold more GFP-WR plasmid versus GFP. A one to one ratio was sufficient for CoIP illustrated in FIG. 4C.” for “blot.”
as §3, with “Quantitation was performed using the accompanying GeneTools software.” left out

TWIST1-RELA binding = molecular target: T3, TWIST1-RELA binding (Homo sapiens, UniProt Q15672); test: Co-immunoprecipitation with RELA pulldown in transfected HEK-293 cells; conditions: increasing GFP-WR expression, total GFP held constant with control GFP
T3 construct: The cloning of TWIST1 into the pcDNA4-MycHis vector has been described previously [14]; The wild type RELA gene was also cloned into pcDNA4-MycHis; expressed in transfected cells; host or cells: HEK-293
T3 sequence (Q15672 1-202): T2 sequence (Q15672 1-202)
From the text: as §1, §2, §3

IL-8 promoter = test: Dual luciferase assay, firefly luciferase under control of the IL-8 promoter, in Ovcar4 cells; assay type: cell-based
Protocol: as §4, with “assays. […]” for “assays.”
Ovcar4 cells were plated at 50,000-75,000 cells per well, in 500 μL RPMI, in a 24 well plate and allowed to adhere overnight. […] The day after transfection, luciferase expression was quantified using the Dual Luciferase Assay kit (Promega, Madison, Wis.) according to the manufacturer instructions.
Western blots were quantified using GeneTools software. Data were graphed and analyzed in Microsoft Excel and GraphPad Prism 6, respectively. […] Luciferase assays were analyzed using one-way ANOVA with correction for multiple comparisons. […]

T1 sequence (Q04206 whole entry): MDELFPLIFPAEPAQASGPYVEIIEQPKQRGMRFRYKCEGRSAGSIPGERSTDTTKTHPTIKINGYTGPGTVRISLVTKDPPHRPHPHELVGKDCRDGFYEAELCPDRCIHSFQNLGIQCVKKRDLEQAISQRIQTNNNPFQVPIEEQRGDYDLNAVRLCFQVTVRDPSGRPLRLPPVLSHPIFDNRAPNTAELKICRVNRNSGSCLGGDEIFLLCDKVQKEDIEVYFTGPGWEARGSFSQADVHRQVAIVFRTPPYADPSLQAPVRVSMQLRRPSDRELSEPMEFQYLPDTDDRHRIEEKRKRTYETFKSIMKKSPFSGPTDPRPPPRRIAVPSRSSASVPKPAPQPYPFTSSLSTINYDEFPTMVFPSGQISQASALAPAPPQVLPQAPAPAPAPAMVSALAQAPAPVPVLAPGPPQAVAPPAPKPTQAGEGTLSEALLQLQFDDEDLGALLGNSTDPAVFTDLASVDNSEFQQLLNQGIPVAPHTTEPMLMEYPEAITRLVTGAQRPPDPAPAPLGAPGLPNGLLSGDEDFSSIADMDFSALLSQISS

RELA co-precipitated with GFP (RELA)	absolute levels of TWIST1 and GFP in cytoplasmic and nuclear fractions (TWIST1 [2]; increasing amount of GFP-WR transfected)	Molecule	TWIST1 co-precipitated with GFP (TWIST1 [1])	proportion of TWIST1 signal found in the cytoplasmic fraction (TWIST1 [2]; increasing GFP-WR transfection, western blot of fractionated cells)	TWIST1 co-precipitated with RELA (TWIST1-RELA binding) (TWIST1-RELA binding)	IL-8 promoter driven FFluc expression (normalized to Renilla luciferase) (IL-8 promoter; increasing dose of GFP-WR, Ovcar4 cells co-transfected with TWIST1 and RELA)	levels of TWIST1 and GFP in the cytoplasmic fraction after proteasome inhibition (TWIST1 [2]; MG132 5 μM overnight, cells expressing GFP-WR)	IL-8 promoter activity (FFluc expression) after proteasome inhibition (IL-8 promoter; MG132 1 μM overnight, cells expressing GFP-WR)
only trace amounts	decreased	GFP-WR: fusion protein of GFP and the 20 amino acid WR domain of TWIST1, expressed from pEGFP-C3 as competitive inhibitor of TWIST1-RELA binding (LELSYAFSVWRMEGAWSMSASH; also: fused to GFP)	more TWIST1 co-precipitated; also recorded: co-precipitated to a greater degree	slight increase; also recorded: mild increase	reduced in a dose-dependent manner; also recorded: reduced in a dose dependent fashion	dose dependent drop; also recorded: dose-dependent reduction	–	–
–	–	CC(C)C[C@@H](C=O)NC(=O)[C@H](CC(C)C)NC(=O)[C@H](CC(C)C)NC(=O)OCc1ccccc1 [MG132, reference compound] (Cbz-Leu-Leu-Leu-aldehyde)	–	–	–	–	partially rescue	increases; also recorded: partial rescue
